Changes are numbered by the printed parent chain.

The results in this text go back to patent publication US20210317231A1 (BYONDIS B V, published 2021).

Sequences and labels used below:
B1: chimeric anti-5T4 monoclonal antibody 829 (antibody, human IgG1, V domains shown)
VH: QSLEESGGRLVTPGTPLTLTCTASGFSLSSYDMSWVRQAPGKGLEYIGWINSDDGAYYANWAKGRFTISRTSTTVDLKITSPTTEDTATYFCARDAGSTYLYGLDPWGPGTLVTVSS
VL: DVVMTQTPSSVSAGVGGTVTIKCQASQSISSYLAWYQQKPGQRPKLLIYAASTLASGVSSRFKGSGSGTEYTLTINDLESADAATYYCQCTYYGGTYNTFGGGTEVVVK
B2: chimeric anti-5T4 monoclonal antibody 847 (antibody, human IgG1, V domains shown)
VH: QSVEESGGRLVTPGTPLTLTCTVSGFSLSSYDMSWVRQAPGKGLEYIGYINSDGSAYYASWAKGRFTISKTSSTTVDLKITSPTTEDTATYFCARDAGSTYLYGMDPWGPGTLVTVSS
VL: B1 VL with S9A, A13E, G14P, K22N, S30Y, E70Q, Y71F, N76S, Y97F
B3: chimeric anti-5T4 monoclonal antibody 908 (antibody, human IgG1, V domains shown)
VH: QSVEESGGRLVTPGTPLTLTCTVSGFSLSNFAMSWVRQAPGKGLEWIGIINGYGSIYYATWAKGRFTISKTSTTVDLKITSPTTEDTATYFCARGDAGRTYNHYFNIWGPGTLVTVSL
VL: DVVMTQTPASVEAAVGGTVTIKCQASQSISSWLSWYQQKPGQRPKLLIYAASNLASGVPSRFKGSGSGTQFTLTISDLESDDAATYYCQQGYTSYNVDNAFGGGTEVVVK
B4: chimeric anti-5T4 monoclonal antibody 828 (antibody, human IgG1, V domains shown)
VH: QSVEESGGRLVTPGTPLTLTCTVSEIDLSTYAMSWVRQAPGKGLEWIGIISAGGSAYYASWAKGRFTISRTSTTVDLKMTSLTTEDTATYFCARGAAYAGYTYGFSFFDIWGPGTLVTVSL
VL: DIVMTQTPSSVSAAVGGTVTINCQASQNIYSNLAWYQQKPGQRPKLLIYGASNLESGVPSRFKGSGSGTEYTLTISDLESDDAATYYCQSIDYGNNYLGSFGGGTEVVVK
B5: chimeric anti-5T4 monoclonal antibody 811 (antibody, human IgG1, V domains shown)
VH: QSVEESGGRLVTPGTSLTLTCTASGFSLSTYAMIWVRQAPGKGLEWIGIINSSGYTYYANWAKGRFTISKTSTTVDLKITSPTTEDTATYFCARGNAGISYDVSFNLWGQGTLVTVSS
VL: AYDMTQTPASVEAGVGGTVTINCQASESISSWLAWYQQKPGQPPNLLIYEASKLASGVPSRFSGSGSGTEFTLTISGVESADAATYYCQQGWTSSNIDNAFGGGTEVVVK
B6: chimeric anti-5T4 antibody 899 with HC-41C mutation (antibody, human IgG1, V domains shown)
VH: QSVEESGGRLVTPGTPLTLTCTVSGFSLSSYTMSWVRQACGKGLEYIGIISSSDGTWYANWVKGRFTISKTSTTVDLKMTSLTTEDTATYFCARDGTGNKYYTWDRLDLWGQGTLVTVSS
VL: NIVMTQTPSPVSGAVGGTVTINCQASQSIYNELSWYQQKPGQPPKLLIYYASTLASGVSSRFKGSGSGTQFTLTISGVESVDAATYYCQQGYSSSNVDNVFGGGTEVVVK
notes: Human IgG1 constant parts; also called chimeric 899; 899 chimeric
B7: humanized anti-5T4 antibody 789c with HC-41C mutation (antibody, V domains shown)
VH: QSVEESGGGLVQPGGSLRLSCAASGFSLSSYWMSWVRQACGKGLEWIGIIAGRGSTYYASWAKGRFTISRDNSKNTLYLQMNSLRAEDTAVYYCARVSSIYYTFNLWGQGTLVTVSS
VL: DIVMTQSPDSLAVSLGERATINCQSSQSVYSNNELSWYQQKPGQPPKLLIYYASTLASGVPDRFSGSGSGTDFTLTISSLQAEDVAVYYCQGSYYSGSGWYYAFGGGTKLEIKR
B8: humanized anti-5T4 antibody 833a with HC-41C mutation (antibody, human IgG1, kappa, V domains shown)
VH: EVQLVESGGGLIQPGGSLRLSCAASGIDLSHYVVGWVRQACGKGLEWVSIIYGSGRTYYANWAKGRFTISKDNSKNTLYVRMNSLRAEDTAVYYCARDASVSVYYWGYFDLWGQGTLVTVSS
VL: AYDMTQSPSSVSASVGDRVTITCQASQSIGSELAWYQQKPGKAPKLLIYRASTLESGVPSRFSGSGSGTDFTLTISSLQPEDFATYYCQQGYTYSEIDNAFGGGTKVEIKR
B9: humanized anti-5T4 antibody 833b with HC-41C mutation (antibody, human IgG1, kappa, V domains shown)
VH: B8 VH with I12V, K71R, Y79F, V80L, A87V, Y94F
VL: B8 VL
B10: humanized anti-5T4 antibody 789a with HC-41C mutation (antibody, V domains shown)
VH: EVKVEESGGGLVQPGGSLRLSCAASGFSLSSYWMSWVRQACGKGLEWVSIIAGRGSTYYASWAKGRFTISKDNSEGMVYLQMNSLRAEDTAVYYCARVSSIYYTFNLWGQGTTVTVSS
VL: EIVLTQSPSSLSASVGDRVTITCQSSQSVYSNNELSWYQQKPGKAPKLLIYYASTLASGVPSRFSGSGSGTDFTLTISSLQPEDFATYYCQGSYYSGSGWYYAFGQGTKLEIKR
B11: humanized anti-5T4 antibody 789b with HC-41C mutation (antibody, V domains shown)
VH: EVQLLESGGSLVLPGGSLRLSCAASGFSLSSYWMSWVRQACGKGLEWVSIIAGRGSTYYASWAKGRFTISRDNSKNTLYMQMNSLRAEDTALYFCARVSSIYYTFNLWGQGTLVTVSS
VL: B10 VL
B12: humanized anti-5T4 antibody 789d with HC-41C mutation (antibody, V domains shown)
VH: B7 VH
VL: B10 VL with E1A, I2Q, Q106G, L110V
B13: prior art anti-5T4 antibody H8 (H8 humanized variant 1) (antibody, human IgG1, kappa, V domains shown)
VH: QVQLVQSGAEVKKPGASVKVSCKASGYSFTGYYMHWVKQSPGQGLEWIGRINPNNGVTLYNQKFKDRVTMTRDTSISTAYMELSRLRSDDTAVYYCARSTMITNYVMDYWGQGTLVTVSS
VL: DIVMTQSPDSLAVSLGERATINCKASQSVSNDVAWYQQKPGQSPKLLISYTSSRYAGVPDRFSGSGSGTDFTLTISSLQAEDVAVYFCQQDYNSPPTFGGGTKLEIKR

One test addresses T1, human 5T4 oncofoetal antigen (human, UniProt Q13641 32-420).
T1 construct: whole, on cells; also called hu 5T4; human 5T4 antigen
T1 sequence (looked up): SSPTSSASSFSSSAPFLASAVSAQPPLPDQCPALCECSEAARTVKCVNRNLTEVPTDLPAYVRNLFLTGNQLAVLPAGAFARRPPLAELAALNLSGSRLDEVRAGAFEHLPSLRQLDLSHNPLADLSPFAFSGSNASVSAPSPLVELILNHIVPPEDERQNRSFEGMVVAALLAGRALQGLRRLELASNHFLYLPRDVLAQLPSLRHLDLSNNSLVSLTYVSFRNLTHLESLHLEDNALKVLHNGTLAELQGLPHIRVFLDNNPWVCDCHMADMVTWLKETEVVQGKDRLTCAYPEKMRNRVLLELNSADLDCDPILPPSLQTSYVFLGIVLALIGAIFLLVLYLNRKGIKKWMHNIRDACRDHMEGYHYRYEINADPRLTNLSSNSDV
Put plainly: flow cytometry, PA-1 cells. As for the experimental part:
(§1) 17 antibodies were selected and affinity to 5T4 antigen was measured using MDA-MB-468 cells, PA-1 cells and Chinese Hamster Ovary (CHO) mammalian cells expressing human or cyno 5T4 antigen (Table 2). In the current application the utilized CHO cells are referred to as CHOZN as these CHO cells expressing human or cyno 5T4 antigen were obtained using the CHOZN® Platform of Sigma-Aldrich. CHOZN cells (SAFC) were transiently transfected, using an Amaxa nucleofector device (Lonza) according to the manufacturer's instructions. Standard, commercially available mammalian expression vectors (SAFC, Life Technologies) were used, which contained the full length human and cyno 5T4 antigen coding sequence (according to accession number NP 006661.1 and Q4R8Y9 respectively), preceded by a human CMV promoter. Transiently transfected CHOZN cells were cultured according the manufacturer's instructions, before being used in antibody binding studies. The 17 selected antibodies are characterised by the amino acid sequences according to the following table (Table 1).
(§2) MDA-MB-468 cells, PA-1 cells or CHOZN cells expressing human or cyno 5T4 antigen (100,000 cells/well in a 96-well plate) were washed three times with ice-cold FACS buffer (1×PBS (Lonza) containing 0.2% v/w BSA (Sigma-Aldrich, St. Louis, Mo.)) and 0.02% v/w NaN3 (Sigma-Aldrich), followed by the addition of a concentration range of each primary mAb (50 μl/well) diluted in ice-cold FACS buffer. After an incubation of 30 minutes at 4° C., cells were washed three times with ice-cold FACS buffer and 50 μl/well secondary mAb (AffiniPure F(ab′)2 fragment Goat-anti-human IgG-APC, 1:6,000 dilution, Jackson Immuno Research) was added. After 30 minutes at 4° C., cells were washed twice and resuspended in 150 μl FACS buffer. Fluorescence intensities were determined by flow cytometry (BD FACSVerse, Fanklin Lakes, N.J.) and indicated as the median fluorescence intensity (MFI). Curves were fitted by nonlinear regression using the sigmoidal dose-response equation with variable slope (four parameters) in GraphPad Prism (version 5.01/6.01 for Windows, GraphPad, San Diego, Calif.). EC₅₀ values were calculated as the concentration in μg/ml that gives a response half way between bottom and top of the curve, when using a 4 parameter logistic fit.
(In flow cytometry, cells or beads pass a laser one at a time.)
As usually defined, the EC50 is the concentration giving half of the maximal effect. For B1, the midpoint of the response, the EC50, lay at 0.07 µg/mL.
Consider B2, for which it took 0.22 µg/mL to reach a half-maximal effect (EC50).
Still for that read-out and setting: the same measure for B3: 0.04 µg/mL; for B4: 0.1 µg/mL.
For the molecule B5, the response was half-maximal at 0.4 µg/mL (EC50).

A further test has as its target T1, human 5T4 oncofoetal antigen. Put plainly: flow cytometry, MDA-MB-468 cells. The protocol:
as §1, §2
The molecule B1 showed an EC50 of 0.17 µg/mL.
The molecule B2 showed a 50% effective concentration (EC50) of 0.2 µg/mL.
On the same count and under the same terms, the same measure for B3: 0.21 µg/mL.
Regarding B4, the EC50 is 0.1 µg/mL.
Regarding B5, the concentration giving a half-maximal response (EC50) was 0.73 µg/mL.

Another test concerns the target T2, cynomolgus monkey 5T4 antigen (cynomolgus monkey, UniProt Q4R8Y9 35-420).
T2 construct: whole, on cells; also called cyno 5T4
T2 sequence (looked up): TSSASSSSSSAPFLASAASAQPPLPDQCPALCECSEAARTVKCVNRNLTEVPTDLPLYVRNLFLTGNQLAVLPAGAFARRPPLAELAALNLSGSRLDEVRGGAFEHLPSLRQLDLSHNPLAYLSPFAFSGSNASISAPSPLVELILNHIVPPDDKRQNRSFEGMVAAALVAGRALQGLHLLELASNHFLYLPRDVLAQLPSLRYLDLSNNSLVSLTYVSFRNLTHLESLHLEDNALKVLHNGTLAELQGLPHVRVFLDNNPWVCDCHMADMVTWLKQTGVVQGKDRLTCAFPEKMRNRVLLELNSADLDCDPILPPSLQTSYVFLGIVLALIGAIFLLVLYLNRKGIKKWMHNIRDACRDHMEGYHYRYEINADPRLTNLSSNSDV
Put plainly: flow cytometry, CHOZN cells expressing cyno 5T4. The protocol:
as §2
With B1, the “fold improvement of binding compared to H8 on cyno 5T4” value (shortened to “fold improvement of binding”) came to 32 fold.
B2: the “fold improvement of binding” value was 32 fold.
For the molecule B3, the “fold improvement of binding” value came out at 32 fold.
Still for that read-out and setting: the same measure for B4: 7 fold; for B5: 32 fold.

The target in a further test is T1, human 5T4 oncofoetal antigen. Put plainly: flow cytometry, CHOZN cells expressing hu 5T4. The protocol: as §1, §2
B1 yielded an EC50 of 0.24 µg/mL.
B2 showed an EC50 of 0.22 µg/mL.
Regarding B3, the EC50 is 0.23 µg/mL.
With B4, a half-maximal response (EC50) required 0.19 µg/mL.
Molecule B5 showed an EC50 of 0.34 µg/mL.

The next test has the same target. Put plainly: flow cytometry, CHOZN cells expressing hu 5T4. The source holds these as a separate data set.
As to B6, the midpoint of the response, the EC50, lay at 0.14 µg/mL.
Still for that read-out and setting: the same measure for B7: 0.2 µg/mL; for B8: 0.22 µg/mL.
For the molecule B9, a half-maximal effect (EC50) was put at 0.15 µg/mL.
For B10, a half-maximal response (EC50) required 0.2 µg/mL.
Same read-out and setting: the same measure for B11: 0.15 µg/mL; for B12: 0.12 µg/mL.

Another test deals with T2, cynomolgus monkey 5T4 antigen. Put plainly: flow cytometry, CHOZN cells expressing cyno 5T4. This is another data set of the same source. The protocol: as §1, §2
B1 returned an EC50 of 0.22 µg/mL.
B2 yielded an EC50 of 0.2 µg/mL.
On to B13, for which the response was half-maximal at 8.11 µg/mL (EC50).
Consider B3, for which the 50% effective concentration (EC50) was 0.24 µg/mL.
With B4, the concentration for a half-maximal effect (EC50) came out at 0.82 µg/mL.
On to B5, for which the EC50 turned out to be 0.25 µg/mL.

For a further test the target is unchanged. Put plainly: flow cytometry, CHOZN cells expressing cyno 5T4. This is another data set of the same source.
Consider B13, for which the EC50 was determined as 1.99 µg/mL.
Regarding B6, a half-maximal effect (EC50) was put at 0.18 µg/mL.
B7 registered an EC50 of 0.21 µg/mL.
For the molecule B8, the EC50 was 0.12 µg/mL.
Molecule B9 gave an EC50 of 0.18 µg/mL.
B10: the EC50 was found to be 0.33 µg/mL.
Still for that read-out and setting: the same measure for B11: 0.24 µg/mL.
B12 had a half-maximal effective concentration (EC50) of 0.15 µg/mL.
